The results in this text go back to publication PMC8215294.

Data set [1] addresses Arabidopsis thaliana thimet oligopeptidase TOP1, full-length (A. thaliana) (UniProt Q94AM1). As to the kind of experiment: SEC; purified His-tagged TOPs treated 30 min at RT with DTTred, DTTox, GSH or GSSG, purified again and dialysed; XBridge BEH200A SEC column, 50 mM sodium phosphate, 150 mM NaCl, 0.02% NaN3, pH 7.0. (In general: Size exclusion chromatography separates by hydrodynamic size, large species first.)

Another data set deals with Q94AM1. Described as above.
Another data set deals with T1, TOP1^C548A, Q94AM1.
T1 chain: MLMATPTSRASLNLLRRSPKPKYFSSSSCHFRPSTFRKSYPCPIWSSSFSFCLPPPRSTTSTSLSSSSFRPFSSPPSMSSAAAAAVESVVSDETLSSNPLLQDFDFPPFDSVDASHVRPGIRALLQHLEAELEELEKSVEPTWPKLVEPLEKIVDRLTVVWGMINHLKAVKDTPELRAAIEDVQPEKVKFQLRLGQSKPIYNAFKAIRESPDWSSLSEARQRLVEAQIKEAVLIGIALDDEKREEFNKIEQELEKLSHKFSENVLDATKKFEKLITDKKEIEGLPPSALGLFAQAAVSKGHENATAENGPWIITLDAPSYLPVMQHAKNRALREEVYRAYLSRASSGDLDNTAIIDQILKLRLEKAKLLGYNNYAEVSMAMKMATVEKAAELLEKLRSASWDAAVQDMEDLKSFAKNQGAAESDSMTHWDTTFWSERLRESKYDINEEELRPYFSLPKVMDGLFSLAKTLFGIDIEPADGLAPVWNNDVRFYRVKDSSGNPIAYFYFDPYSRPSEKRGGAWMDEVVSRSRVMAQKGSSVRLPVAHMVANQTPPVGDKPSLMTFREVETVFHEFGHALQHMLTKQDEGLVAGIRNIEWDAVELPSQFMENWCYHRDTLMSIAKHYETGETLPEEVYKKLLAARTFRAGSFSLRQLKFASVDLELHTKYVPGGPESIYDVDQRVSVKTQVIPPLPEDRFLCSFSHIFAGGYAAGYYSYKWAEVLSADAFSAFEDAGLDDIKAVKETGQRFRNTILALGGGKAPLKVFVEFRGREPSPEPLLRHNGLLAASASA
As to the kind of experiment: size-exclusion chromatography (SEC), peak area quantification. As to conditions: chain shown with the change; treatment (Ctrl or GSSG) not stated for this panel; parent: est. 38; read off a plot.

In another data set the target is T2, TOP1^C42A, Q94AM1.
T2 chain: T1 chain with C42A, A548C
The description is as above. As to conditions: chain shown with the change; treatment (Ctrl or GSSG) not stated for this panel; parent: est. 38; read off a plot.

Another data set addresses T3, TOP1^C611A, Q94AM1.
T3 chain: T1 chain with A548C, C611A
The data set is described as above. As to conditions: chain shown with the change; treatment (Ctrl or GSSG) not stated for this panel; parent: est. 38; read off a plot.

The next data set addresses T4, TOP1^C699A, Q94AM1.
T4 chain: T1 chain with A548C, C699A
The description is as above. To be noted: chain shown with the change; treatment (Ctrl or GSSG) not stated for this panel; parent: est. 38; read off a plot.

A further data set deals with T5, TOP1^C29A, Q94AM1.
T5 chain: T1 chain with C29A, A548C
Described as above. As to conditions: chain shown with the change; treatment (Ctrl or GSSG) not stated for this panel; parent: est. 38; read off a plot.

Substitutions are numbered along the chain they refer to. In names and notes the source's numbering stands. Several values for one entry are separate records, joined by “and”; a condition that tells them apart may be missing. Equal entries are not always repeated.

Consider “Arabidopsis thaliana thimet oligopeptidase TOP1, full-length (from UniProt Q94AM1 83-791) (enzyme)”, for which the stoichiometry N in data set [1] is 2 and 3.

Consider “Arabidopsis thaliana thimet oligopeptidase TOP1, full-length”, for which, in the data set on Q94AM1, the “monomer/dimer ratio (SEC peak area) after DTTred or DTTox” value was “∼7/1 under both conditions”; the “monomer/dimer ratio (SEC peak area) after GSH” value was 3/1 and 2/1 post-GSH and -GSSG, respectively; the “monomer/dimer ratio (SEC peak area) after GSSG” value was 3/1 and 2/1 post-GSH and -GSSG, respectively.

B1: Arabidopsis thaliana thimet oligopeptidase TOP1, full-length, Q94AM1 C548A (protein)
chain: T1 chain
In the case of B1, the other: percent dimer with TOP1^C548A, Q94AM1 turned out to be 18%.

B2: Arabidopsis thaliana thimet oligopeptidase TOP1, full-length, Q94AM1 C42A (protein)
chain: T1 chain with C42A, A548C
Regarding B2, the other: percent dimer in the data set with TOP1^C42A, Q94AM1 stood at 12%.

B3: Arabidopsis thaliana thimet oligopeptidase TOP1, full-length, Q94AM1 C611A (protein)
chain: T1 chain with A548C, C611A
For the molecule B3, the other: percent dimer with TOP1^C611A, Q94AM1 was 3.5%.

B4: Arabidopsis thaliana thimet oligopeptidase TOP1, full-length, Q94AM1 C699A (protein)
chain: T1 chain with A548C, C699A
For the molecule B4, the other: percent dimer with TOP1^C699A, Q94AM1 turned out to be 17%.

B5: Arabidopsis thaliana thimet oligopeptidase TOP1, full-length, Q94AM1 C29A (protein)
chain: T1 chain with C29A, A548C
Regarding B5, the other: percent dimer with TOP1^C29A, Q94AM1 turned out to be 2.5%.

One may read the stoichiometry N as the number of molecules, sites or subunits per partner or assembly.
